Patent publication US20030148973A1 (published 2003)

The binders below were run against T1, HLA-A0201 molecules on the surface of T2 cells (assay: T2 cell HLA-A0201 stabilization; 20 µg peptide on 10^6 acid-stripped T2 cells, BB7.2 staining, flow cytometry).
T1 construct: whole, on cells; Empty (peptide-stripped) HLA-A0201 on T2 cells; also called HLA-A2
Protocol: Subsequent dissociation of peptides from the HLA class 1 MHC molecules results in the loss of BB7.2 monoclonal antibody binding.
In order to determine whether the identified nonapeptides can be presented by HLA-A0201, T2 cells were propagated in RPMI complete medium (RPMI medium supplemented with 10% heat-inactivated bovine serum, 120.0 units per ml of penicillin G sodium, 120 μg per ml of streptomycin sulphate, and 0.35 mg per ml of L-glutamine). The ability of MAGE-A1 derived peptides to bind and stabilize surface HLA-A0201 molecules on T2 cells was determined utilizing a standard protocol (Deng, Y. (1997) J Immunol 158:1507-1515). The required number of T2 flasks were incubated overnight at 26° C. serum-free culture medium (RPMI medium supplemented with 120.0 units per ml of penicillin G sodium and 0.35 mg per ml of L-glutamine). The next day, cells were washed with RPMI medium (without bovine serum) and then resuspended in denaturing solution (300 mM Glycine in 1% BSA, pH 2.5) for 3 min, in order to strip the existing HLA A2 molecules of endogenous peptide. The stripped T2 cells were washed at once in an excess of RPMI media (without bovine serum) to neutralize the acidic stripping solution. To load the peptide of interest into the HLA-A2 peptide binding groove, 20 μg of specific peptide was pulsed onto 10⁶ denatured T2 cells in 2 ml peptide loading media (RPMI medium supplemented with 120.0 units per ml of penicillin G sodium; 0.35 mg per ml of L-glutamine; 1× sodium pyruvate; 1× non-essential amino acids; 1×2-mercapto-ethanol) for 4 hours at 26° C. The cells were washed in cold 1% BSA in PBS and resuspended in 100 μl of cold 1% BSA in PBS to prevent MHC protein turn over. […] The binding of BB7.2 was detected via the addition of 1.0 μg per test of goat anti-mouse IgG-Fc fluorescein (FITC) conjugate (BETHYL Laboratories Inc). […] The samples were then analyzed by Flow Cytometry, and the results were expressed in units of Fluorescence Index (FI), calculated by the equation: […]
In the case of LQLVFGIDV (also called Peptide # 3) [MAGE-A1 151], the “Fluorescence Index (FI)” value is reported as 0.52 FI.
SAYGEPRKL (also called Peptide # 14) [MAGE-A1 230] was tested, and the “Fluorescence Index (FI)” value was 1.61 FI.
In the case of KVLEYVIKV (also called Peptide # 1) [MAGE-A1 278], the “Fluorescence Index (FI)” value is reported as 2.18 FI.
